Test [1] deals with T1, MUC1 alanine library glycopeptide 8 (human, GalNAc-Serine / GalNAc-Threonine at the bold underlined positions of Table 10A (marking not preserved); the Ser-GalNAc at position 20 is replaced by alanine).
T1 construct: Position 20 (Ser-GalNAc) replaced by alanine
T1 peptide: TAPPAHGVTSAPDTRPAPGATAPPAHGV
Briefly: ELISA, peptide coated at 0.25 µg/ml, antibody supernatant; OD mutant peptide / OD wild type glycopeptide (SEQ ID NO:99). How it is done:
(§1) Glycopeptides and relevant controls were diluted to 0.25 μg/ml in 0.2 M bicarbonate buffer pH 9.8 and 100 μl was plated onto each well of a high binding ELISA plate. Plates were then incubated overnight at 4° C. After discarding the coating buffer, the plate was blocked with 300 μl per well of blocking buffer (2.5% BSA in 1×PBS) for 1 hr at room temperature. Blocking buffer was then discarded, and 100 μl per well of antibody supernatant for each of 5E5, 1AG, and 4AG (diluted in blocking buffer) was added and incubated for 1 hr at room temperature. Antibody supernatant dilutions were previously optimized for each antibody (data not shown). Biotinylated Villa Villosa lectin (100 μl per well of 1 μg/ml in blocking buffer) was added to the plate as a control to detect the presence of GalNAc modified residues on the peptide. Plates were washed 3 times with 300 μl per well 1×TBS/0.05% Tween-20 (TBST). The secondary antibody Goat-anti mouse IgG (H+L)-HRP was diluted 1/5000 in blocking buffer and 100 μl of the diluted antibody was added per well and incubated on the plate for 1 hr at room temperature. Streptavidin-HRP was diluted 1/3000 in blocking buffer and 100 μl of the diluted streptavidin-HRP was added to wells containing the biotinylated lectin. Following secondary incubation, the plate was washed 4 times with 300 μl of TBST per well and then developed with 75 μl of room temperature 1-Step TMB substrate. After 1 minute, color development was stopped using 75 μl 2 N sulfuric acid. The plate was then read at 450 nm using a plate reader (Molecular Device SpectraMax i3).
(An ELISA detects its analyte on a solid surface through an enzyme-linked reagent.)

Test [2] deals with T2, MUC1 alanine library glycopeptide 9 (human, GalNAc-Serine / GalNAc-Threonine at the bold underlined positions of Table 10A (marking not preserved); the Thr-GalNAc at position 21 is replaced by alanine).
T2 construct: Position 21 (Thr-GalNAc) replaced by alanine
T2 peptide: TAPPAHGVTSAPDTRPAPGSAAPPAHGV
The description is as above. The protocol: as §1

Test [3] addresses T3, Glycosylated peptide RPAPGSTAPPAHGVT (Table 5, SPR) (human, also: GalNAc at sites not preserved).
T3 construct: Printed without biotin
T3 peptide: RPAPGSTAPPAHGVT
Briefly: SPR, Biacore T200, antibody on chip, peptide injected in single-cycle 6.25-100 nM, 25 C. How it is done: Binding of the 1AG and 4AG antibodies to one glycysolated and one non-glycosylated peptide (Table 5) was assessed by surface plasmon resonance (SPR).
All SPR experiments were performed on a Biacore T200 with a CM5 sensor chip with 10,000 RU anti-mouse antibody on each channel (GE Healthcare) at 25° C. with HBS-P+ as running and sample buffer (10 mM HEPES pH 7.4, 150 mM NaCl, 0.05% Tween 20, and 1 mg/ml BSA) and 10 mM glycine, pH 1.7 as regeneration buffer.
The 1AG and 4AG antibodies were immobilized as a 30 μg/mL solution in 10 mM sodium acetate, pH 5.0 using standard amine coupling chemistry (EDC/NHS activation). Antibody capture was performed using a 10× dilution into reaction buffer for 7 to 10 minutes at 5 μL/min. Immobilization levels of 600 to 1000 RU were used. […] The dissociation was monitored for 5 minutes to 30 minutes.
For orientation: In SPR one partner is held on a chip, and binding of the other changes the refractive index at the surface.

Test [4] concerns the target T4, BSA (bovine, UniProt P02769).
T4 construct: commercial protein in control wells; also called bovine serum albumin
Nature of the test: indirect ELISA on BSA blocked control wells, hybridoma supernatant, anti-mouse IgG-HRP, OD 450 nm. How it is done:
(§2) ELISA plates were coated with MUC1 peptides titrated in 0.2 M bicarbonate buffer, pH 9.4 over night in concentrations ranging from 0.08 μg/ml to 10 μg/ml. BSA was used as a control/measure of background. The plates were then blocked with SuperBlock™ (Thermo Fisher) for 1 hr at room temperature. After plate washing, 1AG and 4AG hybridoma supernatants were incubated on the ELISA plate for 1 hour. The plates were then washed, and then incubated with secondary antibody (1/3000 Goat Anti-mouse IgG (H+L) HRP (abcam 62-6520)) for 1 hour. The plate was then washed and color was developed with 1-Step™ Ultra TMB (Thermo Fisher) for 2 minutes. Color development was then stopped with 2 N Sulfuric Acid. Absorbance at 450 nm was then measured.

The target in test [5] is T5, 1 (GalNAc-Ser / GalNAc-Thr at the positions marked bold and underlined in Table 10A (the marking is lost in the text as given)).
T5 construct: also called MUC1 alanine library glycopeptide 1; peptide 1
T5 peptide: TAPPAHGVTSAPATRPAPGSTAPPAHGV
Nature of the test: alanine-scan ELISA: peptides coated at 0.25 ug/ml, antibody supernatant, anti-mouse IgG-HRP; OD450 divided by OD450 on the wild-type peptide. How it is done:
as §1

For test [6], the target named is T6, 2 (GalNAc-Ser / GalNAc-Thr at the positions marked bold and underlined in Table 10A (the marking is lost in the text as given)).
T6 construct: also called MUC1 alanine library glycopeptide 2; peptide 2
T6 peptide: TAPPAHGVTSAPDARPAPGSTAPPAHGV
The description is as above. How it is done:
as §1

For test [7], the target named is T7, Negative (none (non-glycosylated)).
T7 construct: also called Negative Control
T7 peptide: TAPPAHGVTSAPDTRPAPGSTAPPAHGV
The description is as above. The protocol:
as §1

Test [8] concerns the target T8, Irrelevant Glycopeptide (GalNAc-Ser / GalNAc-Thr at the positions marked bold and underlined in Table 10B (the marking is lost in the text as given)).
T8 peptide: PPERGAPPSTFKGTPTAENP
Described as above. The protocol: as §1

Test [9] concerns the target T9, MUC1 alanine library glycopeptide 3 (human, GalNAc-Serine / GalNAc-Threonine at the bold underlined positions of Table 10A (marking not preserved)).
T9 construct: Position 15 (R) replaced by alanine
T9 peptide: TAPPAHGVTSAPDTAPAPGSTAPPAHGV
The description is as above. How it is done:
as §1

The target in test [10] is T10, MUC1 alanine library glycopeptide 4 (human, GalNAc-Serine / GalNAc-Threonine at the bold underlined positions of Table 10A (marking not preserved)).
T10 construct: Position 16 (P) replaced by alanine
T10 peptide: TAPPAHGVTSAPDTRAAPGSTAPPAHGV
Described as above. How it is done: as §1

Test [11] has as its target T1, MUC1 alanine library glycopeptide 8. The test is described as above. The protocol:
as §1

Test [12] addresses T11, MUC1 alanine library glycopeptide 12 (human, GalNAc-Serine / GalNAc-Threonine at the bold underlined positions of Table 10A (marking not preserved)).
T11 peptide: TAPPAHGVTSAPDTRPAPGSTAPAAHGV
The description is as above. The protocol:
as §1

Test [13] addresses T4, BSA. Nature of the test: indirect ELISA, BSA control wells drawn on the peptide axis, hybridoma supernatant, anti-mouse IgG-HRP, OD 450 nm. How it is done: as §2
The target of test [14] is T12, MUC1 alanine library glycopeptide 6 (human, GalNAc-Serine / GalNAc-Threonine at the bold underlined positions of Table 10A (marking not preserved)).
T12 construct: Position 18 (P) replaced by alanine
T12 peptide: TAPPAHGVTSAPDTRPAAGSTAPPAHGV
Nature of the test: alanine-scan ELISA: peptides coated at 0.25 ug/ml, antibody supernatant, anti-mouse IgG-HRP; OD450 divided by OD450 on the wild-type peptide. The protocol: as §1

Test [15] deals with T13, MUC1 alanine library glycopeptide 10 (human, GalNAc-Serine / GalNAc-Threonine at the bold underlined positions of Table 10A (marking not preserved)).
T13 construct: Position 22 (A) replaced by glycine
T13 peptide: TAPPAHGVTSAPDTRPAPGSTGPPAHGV
Described as above. The protocol:
as §1

Test [16] deals with T14, MUC1 alanine library glycopeptide 11 (human, GalNAc-Serine / GalNAc-Threonine at the bold underlined positions of Table 10A (marking not preserved)).
T14 construct: Position 23 (P) replaced by alanine
T14 peptide: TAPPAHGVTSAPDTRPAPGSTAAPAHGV
Described as above. How it is done: as §1

No end group written: not given here.

T4 sequence (P02769 25-607 limits assumed): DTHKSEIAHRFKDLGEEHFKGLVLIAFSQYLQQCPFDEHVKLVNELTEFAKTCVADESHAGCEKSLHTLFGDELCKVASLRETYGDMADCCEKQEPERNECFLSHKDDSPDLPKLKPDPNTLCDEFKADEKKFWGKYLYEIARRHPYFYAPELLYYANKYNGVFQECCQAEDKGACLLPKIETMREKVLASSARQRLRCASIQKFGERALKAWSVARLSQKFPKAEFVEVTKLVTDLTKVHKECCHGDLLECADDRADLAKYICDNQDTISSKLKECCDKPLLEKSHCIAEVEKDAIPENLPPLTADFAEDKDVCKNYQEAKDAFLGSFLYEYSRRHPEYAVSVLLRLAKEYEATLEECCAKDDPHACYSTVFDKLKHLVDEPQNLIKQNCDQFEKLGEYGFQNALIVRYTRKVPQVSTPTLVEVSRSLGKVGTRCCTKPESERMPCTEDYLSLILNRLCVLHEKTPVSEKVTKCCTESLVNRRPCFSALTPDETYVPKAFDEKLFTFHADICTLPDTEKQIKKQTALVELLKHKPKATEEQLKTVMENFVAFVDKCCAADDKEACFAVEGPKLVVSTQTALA

Turning to 5E5 (antibody), the percent binding compared to the wild type peptide in test [1] came out at 18%; in test [2], 2.93%.

B1: 1AG (antibody, V domains shown)
VH: EVKLLESGGGLVQPGGSLKLSCAASGFDFSRDWMSWVRQAPGKGLEWIGEINPDSSTKNYTPSLKDKFIISRDNAKNTLFLQMSSVRSEDTALYYCATSHYYGLFGYWGQGTLVTVSA
VL: DIVLTQSPASLTVSLGQRATISCRASKSVSTSGYSYMHWYQQKPGQPPKLLIYLASYLESGVPARFSGSGSGTDFTLNIHPVEEEDAATYYCQHSRELPRTFGGGTKLEIK
notes: Mouse monoclonal antibody from Balb/c hybridoma; Used as hybridoma supernatant in the ELISAs; also called mAb 1AG; antibody 1AG
With B1, the Kd in test [3] was determined as 37.3 nM. Also, the koff in test [3] was found to be 0.007 s⁻¹. The molecule also had a kon in test [3] of 179000 M⁻¹ s⁻¹. In addition, the binding result in [4] is “no binding”; in [5], “binds”; in [6], “binds”; in test [7] it was “no binding (tested: 0.25 ug/ml coating peptide)”; in [8], “no binding (tested: 0.25 ug/ml coating peptide)”; in [9] it was “binds”. Further, the figures for the binding result in test [10], in test [11] and in test [12] were “binds”, “no binding (tested: 0.25 ug/ml coating peptide)” and “binds”, respectively. Besides, the results for the “percent binding compared to the wild type peptide” value in test [1] and in [2] were 2.23% and 6.07%, respectively.

B2: 4AG (antibody, V domains shown)
VH: EVKLLESGGGLVQPGGSLKLSCVASGFDFSRYWMSWVRQAPGKGPEWIGEINPESNTMNYSPSLKEKFIISRDTAKNMLYLQMSKVRSEDTALYYCATSHHYGLFDYWGQGTLVTVSA
VL: DIVLTQSPASLAVSLGQRATISCRASKSVSTSGYNYIHWYQQKPGQPPKLLIYLASYLESGVPARFSGSGSGTDFTLNIHPVEEEDAATYFCQHSRELPRTFGGGTKLEFK
notes: Mouse monoclonal antibody from Balb/c hybridoma; Used as hybridoma supernatant in the ELISAs; also called mAb 4AG; antibody 4AG
With B2, binding in test [3] was characterised by a dissociation constant (Kd) of 3.4 nM. Besides, the off-rate constant (koff) in test [3] was 0.00093 s⁻¹. The molecule also gave a kon in test [3] of 272000 M⁻¹ s⁻¹. Moreover, the entries for the “percent binding compared to the wild type peptide” value in test [1] and in test [2] were 1.63% and 14.6%, respectively. For the same molecule, the binding result in test [13] is “no binding (tested: 10 ug/ml on the peptide axis)”; in [5] it was “binds”; in test [6], “binds”; in test [7], “no binding (tested: 0.25 ug/ml coating peptide)”; in test [8] it was “no binding (tested: 0.25 ug/ml coating peptide)”; in test [9], “binds”. In addition, the binding result in [10] is “binds”; in test [14] it was “binds”; in [11], “no binding (tested: 0.25 ug/ml coating peptide)”; in test [15] it was “binds”; in [16], “binds”; in test [12], “binds”.

Broadly, the Kd is the constant that tells how readily two partners part at equilibrium. Low values mean a tighter complex, high ones a looser complex. The term koff denotes the rate constant with which the complex falls apart. Broadly, the kon is the second-order rate constant of association. Low values mean slow association, high ones fast association.

These data come from patent publication US20210269552A1 (GO THERAPEUTICS, published 2021).
